Molecular target: SHP2^WT-TurboID (UniProt Q06124)

in vitro phosphatase activity (initial velocity, RFU/s, DiFMUP substrate): +PD-1 pY248 over basal activity: 10 fold
Substance: PD-1 pY248 phosphopeptide
